Reference: publication PMC12081870 (Communications Biology, 2025)

Assay: 15N NMR relaxation (T1, T2, NOE) of Sla1 SH3#1&2
Type: physicochemical, Saccharomyces cerevisiae
Set-up: Time Constant (T2) / T1 / T2: unit not given here
Conditions: for R1/s: 15N relaxation rate; for NOE / T1 / T2: 15N relaxation; for Time Constant (T2): fit A exp(-Bx), 11 peaks
Source text: Fig. 2 A structural analysis of Sla1 SH3 domains 1 and 2. A The predicted interface between the first two SH3 domains of Sla1 as modelled using Alphafold. SH3#1 is shown in light green and SH3#2 is shown in cyan. Residues predicted to form hydrogen bonds using the Pymol search function are shown as sticks and labelled with their respective residue numbers. Dashed black lines indicate interactions. The red line in the structure indicates residues 67–70 in the hinge between the SH3 domains; the magenta loop indicates residues 52–54. B Assignment of the ^1H ^15N HSQC spectrum of Sla1 SH3 domains 1 and 2. C^15N relaxation data for Sla1 SH3#1&2. The linker between domains is approximately residues 67–70 (shown with red line under the trace and in A), and the mobile region 52-54 is part of a loop (shown with magenta line below the trace and in A). The correlation time of 8.5 ns (derived from the trimmed ^15N T1/T2 ratio), matches that calculated for a rigid two-domain structure rather than two independent domains (8.8 and 4.5 ns, respectively).
To investigate further, we purified ^15N, ^13C labelled Sla1 SH3#1&2 and analysed using NMR. A full assignment was obtained (Fig. 2B) which confirmed the Alphafold structure. An important aspect when considering the function of tandem domains is the level of rigidity or flexibility between the domains. […] NMR was used to determine relaxation parameters (^15N R1, R2 and NOE) of ^15N-labelled SH3#1-2 (Fig. 2B). […] The structural unity of the two-domain structure explains why attempts to study SH3#2 alone were unsuccessful.
Experiments were carried out on Bruker DRX-600 and DRX-800 spectrometers fitted with cryoprobes. SH3 domains 1 and 2 were assigned using a standard set of HNCA/HN(CO)CA, HNCO/HN(CA)CO and CBCAHN/CBCA(CO)HN 3D spectra. The assignment has been deposited at BioMagResBank, with code 52650. SH3 domain-3 was assigned by comparison to data provided by Prof Ishwar Radhakrishnan (Northwestern University) for the same domain although with different residues at both ends. Titrations were conducted with three peptides (GenScript Biotech, UK) comprising the three PP motifs (Fig. 3A): p1 […] (residues 318–339); p2 […] (residues 330–361); and p3 […] (residues 375–397). Peptide solutions were prepared as concentrated stock solutions in the same buffer at the same pH and added stepwise to protein solutions. Shift changes were analysed by picking peaks in Felix (Felix NMR Inc, San Diego, CA), which were downloaded to text files and for determining Kd were analysed using Levenberg-Marquardt least squares fitting to the standard quadratic equation[63]. Analysis of the ^15N relaxation data was carried using CCPN Analysis[64].

[1] = Average over the listed residues

B1: Sla1 SH3#1-2: SH3#1-2 (aa 5-131), tandem domains; sequence in b253 (protein)
chain: LGIYRAVYAYEPQTPEELAIQEDDLLYLLQKSDIDDWWTVKKRVIGSDSEEPVGLVPSTYIEEAPVLKKVRAIYDYEQVQNADEELTFHENDVFDVFDDKDADWLLVKSTVSNEFGFIPGNYVEPEN
modifications: 15N-labelled (NMR only); left off: GST, end not stated, cleaved
**Q.** Which R1/s (Res No 120) does the source give for B1 here?
**A.** The R1/s was 1.466 s⁻¹.

**Q.** And the R1/s (Res No 121)?
**A.** The R1/s was 1.493 s⁻¹.

**Q.** What about the R1/s (Res No 122) of the same molecule?
**A.** Its R1/s is 1.379 s⁻¹.

**Q.** And the R1/s (Res No 124)?
**A.** The R1/s was 1.37 s⁻¹.

**Q.** What about the R1/s (Res No 125) of the same molecule?
**A.** The R1/s was 1.488 s⁻¹.

**Q.** What about the R1/s (Res No 126) of the same molecule?
**A.** The R1/s was 1.238 s⁻¹.

**Q.** What about the R1/s (Res No 127) of the same molecule?
**A.** The R1/s was 1.493 s⁻¹.

**Q.** What about the R1/s (Res No 128) of the same molecule?
**A.** Its R1/s is 1.443 s⁻¹.

**Q.** What about the R1/s (Res No 130) of the same molecule?
**A.** Its R1/s is 1.206 s⁻¹.

**Q.** And the R1/s (Res No 131)?
**A.** The R1/s was 1.364 s⁻¹.

**Q.** What about the NOE (Res No 120) of the same molecule?
**A.** Its NOE is 0.82.

**Q.** What about the T1 (Res No 120) of the same molecule?
**A.** The T1 was 682.123.

**Q.** And the T2 (Res No 120)?
**A.** Its T2 is 81.3349.

**Q.** And the NOE (Res No 121)?
**A.** The NOE was 0.78.

**Q.** What about the T1 (Res No 121) of the same molecule?
**A.** The T1 was 669.609.

**Q.** What about the T2 (Res No 121) of the same molecule?
**A.** Its T2 is 97.0012.

**Q.** What about the NOE (Res No 122) of the same molecule?
**A.** The NOE was 0.83.

**Q.** And the T1 (Res No 122)?
**A.** Its T1 is 725.391.

**Q.** What about the T2 (Res No 122) of the same molecule?
**A.** Its T2 is 86.8543.

**Q.** And the NOE (Res No 124)?
**A.** The NOE was 0.77.

**Q.** And the T1 (Res No 124)?
**A.** The T1 was 730.172.

**Q.** And the T2 (Res No 124)?
**A.** The T2 was 96.3447.

**Q.** And the NOE (Res No 125)?
**A.** The NOE was 0.80.

**Q.** What about the T1 (Res No 125) of the same molecule?
**A.** Its T1 is 671.872.

**Q.** What about the T2 (Res No 125) of the same molecule?
**A.** Its T2 is 93.7171.

**Q.** And the NOE (Res No 126)?
**A.** The NOE was 0.79.

**Q.** What about the T1 (Res No 126) of the same molecule?
**A.** The T1 was 807.954.

**Q.** What about the T2 (Res No 126) of the same molecule?
**A.** Its T2 is 78.1493.

**Q.** And the NOE (Res No 127)?
**A.** The NOE was 0.85.

**Q.** And the T1 (Res No 127)?
**A.** Its T1 is 669.869.

**Q.** And the T2 (Res No 127)?
**A.** The T2 was 96.0414.

**Q.** What about the NOE (Res No 128) of the same molecule?
**A.** The NOE was 0.81.

**Q.** What about the T1 (Res No 128) of the same molecule?
**A.** The T1 was 693.218.

**Q.** And the T2 (Res No 128)?
**A.** Its T2 is 98.2071.

**Q.** What about the NOE (Res No 130) of the same molecule?
**A.** The NOE was 0.63.

**Q.** And the T1 (Res No 130)?
**A.** Its T1 is 829.235.

**Q.** What about the T2 (Res No 130) of the same molecule?
**A.** The T2 was 96.7653.

**Q.** And the NOE (Res No 131)?
**A.** The NOE was 0.25.

**Q.** What about the T1 (Res No 131) of the same molecule?
**A.** The T1 was 733.153.

**Q.** What about the T2 (Res No 131) of the same molecule?
**A.** The T2 was 129.47.

**Q.** And the “T1, average” value [1]?
**A.** Its value is 736.968 ms.

**Q.** And the “T1/T2, average” value [1]?
**A.** Its value is 7.904.

**Q.** What about the “T2, average” value (Average over the listed residues, unit of column T2 Error not given) of the same molecule?
**A.** The value was 95.1164 ms.

**Q.** And the tm (If S2 ~ 0.9, from T1/T2)?
**A.** Its tm is roughly 8.5 ns.

**Q.** What about the correlation time (derived from trimmed 15N T1/T2 ratio) of the same molecule?
**A.** Its correlation time is 8.5 ns.

**Q.** And the “Time Constant (T2)” value (residue 2, 2LeuH/2LeuN)?
**A.** The value was 74.2339.

**Q.** And the “Time Constant (T2)” value (residue 3, 3GlyH/3GlyN)?
**A.** The value was 77.6134.

**Q.** And the “Time Constant (T2)” value (residue 4, 4SerH/4SerN)?
**A.** The value was 87.959.

**Q.** What about the “Time Constant (T2)” value (residue 5, 5LeuH/5LeuN) of the same molecule?
**A.** Its value is 78.1323.

**Q.** What about the “Time Constant (T2)” value (residue 6, 6GlyH/6GlyN) of the same molecule?
**A.** Its value is 92.4802.

**Q.** And the “Time Constant (T2)” value (residue 7, 7IleH/7IleN)?
**A.** The value was 92.3591.

**Q.** And the “Time Constant (T2)” value (residue 8, 8TyrH/8TyrN)?
**A.** Its value is 80.6702.

**Q.** And the “Time Constant (T2)” value (residue 9, 9ArgH/9ArgN)?
**A.** The value was 95.265.

**Q.** And the “Time Constant (T2)” value (residue 10, 10AlaH/10AlaN)?
**A.** The value was 80.3318.

**Q.** What about the “Time Constant (T2)” value (residue 11, 11ValH/11ValN) of the same molecule?
**A.** The value was 83.3796.

**Q.** And the “Time Constant (T2)” value (residue 12, 12TyrH/12TyrN)?
**A.** The value was 98.6102.

**Q.** What about the “Time Constant (T2)” value (residue 13, 13AlaH/13AlaN) of the same molecule?
**A.** The value was 103.591.

**Q.** And the “Time Constant (T2)” value (residue 14, 14TyrH/14TyrN)?
**A.** The value was 86.8853.

**Q.** And the “Time Constant (T2)” value (residue 15, 15GluH/15GluN)?
**A.** Its value is 80.7454.

**Q.** And the “Time Constant (T2)” value (residue 17, 17GlnH/17GlnN)?
**A.** Its value is 97.1227.

**Q.** What about the “Time Constant (T2)” value (residue 18, 18ThrH/18ThrN) of the same molecule?
**A.** The value was 94.4167.

**Q.** And the “Time Constant (T2)” value (residue 20, 20GluH/20GluN)?
**A.** Its value is 89.6372.

**Q.** And the “Time Constant (T2)” value (residue 21, 21GluH/21GluN)?
**A.** The value was 88.1386.

**Q.** And the “Time Constant (T2)” value (residue 22, 22LeuH/22LeuN)?
**A.** Its value is 101.792.

**Q.** And the “Time Constant (T2)” value (residue 23, 23AlaH/23AlaN)?
**A.** The value was 109.32.

**Q.** What about the “Time Constant (T2)” value (residue 24, 24IleH/24IleN) of the same molecule?
**A.** Its value is 84.8173.

**Q.** And the “Time Constant (T2)” value (residue 25, 25GlnH/25GlnN)?
**A.** Its value is 91.5466.

**Q.** What about the “Time Constant (T2)” value (residue 26, 26GluH/26GluN) of the same molecule?
**A.** Its value is 91.8855.

**Q.** And the “Time Constant (T2)” value (residue 27, 27AspH/27AspN)?
**A.** The value was 90.7749.

**Q.** What about the “Time Constant (T2)” value (residue 28, 28AspH/28AspN) of the same molecule?
**A.** Its value is 79.1318.

**Q.** What about the “Time Constant (T2)” value (residue 29, 29LeuH/29LeuN) of the same molecule?
**A.** Its value is 102.528.

**Q.** And the “Time Constant (T2)” value (residue 30, 30LeuH/30LeuN)?
**A.** Its value is 94.1276.

**Q.** What about the “Time Constant (T2)” value (residue 31, 31TyrH/31TyrN) of the same molecule?
**A.** The value was 100.15.

**Q.** What about the “Time Constant (T2)” value (residue 32, 32LeuH/32LeuN) of the same molecule?
**A.** The value was 86.762.

**Q.** And the “Time Constant (T2)” value (residue 33, 33LeuH/33LeuN)?
**A.** The value was 75.7339.

**Q.** And the “Time Constant (T2)” value (residue 34, 34GlnH/34GlnN)?
**A.** Its value is 87.3929.

**Q.** And the “Time Constant (T2)” value (residue 35, 35LysH/35LysN)?
**A.** Its value is 101.82.

**Q.** What about the “Time Constant (T2)” value (residue 36, 36SerH/36SerN) of the same molecule?
**A.** Its value is 153.776.

**Q.** What about the “Time Constant (T2)” value (residue 37, 37AspH/37AspN) of the same molecule?
**A.** Its value is 90.5854.

**Q.** What about the “Time Constant (T2)” value (residue 38, 38IleH/38IleN) of the same molecule?
**A.** The value was 99.0603.
